± gives the standard deviation of the averaged measurements.
Test system: ATP
Assay: switch fluorescence ratio, 500 uM ATP over buffer (Cy3 cluster intensity, sum of 5 cycles each) (fold (ratio)); higher = stronger signal-on switching upon ATP binding; sequences stand for … in TCGTCGGCAGCGTCAGATGTGTATAAGAGACAGTTTTTTTTTTTTTTTTTTTTTTTTT…TC
Details: aptamer strand: ATP DNA aptamer (quencher-CACCTGGGGGAGTATTGCGGAGGAAGG + anchor), 100 nM annealed; ATP concentration: 500 uM
In short: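 Exposure to 500 uM ATP lasted 15 min at 22 °C before imaging, and a selection-buffer image was taken beforehand, for Cy3-labelled switching-strand clusters on a modified Illumina MiSeq flow-cell annealed to 100 nM quencher-labelled ATP aptamer. Five buffer/ATP cycles were run with NaOH stripping and re-annealing between them. The fluorescence ratio per cluster is summed target-cycle over summed buffer-cycle Cy3 intensity, averaged per switch-domain sequence. Clusters outside 100-1000 RFU were excluded.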

Sequence | switch fluorescence ratio
TTGGGGATGG | 1.01 ± 0.047
TATTAAGTAG | 1.03 ± 0.038
TTTTCGTTTG | 1 ± 0.074
TACATTGTGC | 1.01 ± 0.015
CTAGGGTTCT | 1.03 ± 0.019
CATCAGGAGG | 0.961 ± 0.035
CCAAAATTGA | 1 ± 0.014
GTCGAATTAT | 0.999 ± 0.019
AGGACGCTGG | 0.9449 ± 0.0088
TTAATTAACG | 0.995 ± 0.023
GGGGTTAGAG | 0.991 ± 0.033
CGGTCATTTT | 0.998 ± 0.033
CAAGGTGGGG | 1.03 ± 0.0038
GGTAACCGGG | 1.019 ± 0.0016
TTTCTCTGTT | 1.02 ± 0.011
CCAATGAGGT | 0.9962 ± 0.0084
TTTGGGTTTC | 0.977 ± 0.017
GGGTCAGGGG | 1.09 ± 0.077
GAGGTTATCA | 1.01 ± 0.013
TCCAAGTCGA | 1.041 ± 0.0033
GGGGGTAATA | 0.999 ± 0.021
ACGGGCCGGT | 0.98 ± 0.069
TTTAATATGT | 0.968 ± 0.024

Sequence | switch fluorescence ratio
CATCGTTTTT | 1.02 ± 0.02
TAAGAGGCGG | 1.01 ± 0.052
TATTAGGGGG | 0.984 ± 0.048
AAGAGTATAA | 0.985 ± 0.04
TGGGAGACGG | 1.2 ± 0.38
GGGTTTTGG | 0.998 ± 0.017
CGAGATGTTA | 0.993 ± 0.015
GGTCCGTCGT | 1.02 ± 0.038
TATTTTGTTT | 0.99 ± 0.014
GGGTTTATTT | 0.982 ± 0.014
GTGATTTTTG | 1.01 ± 0.063
CGTTATCTAG | 1.01 ± 0.03
GTTTGGGGCA | 0.994 ± 0.033
TCCATAGTCG | 1.03 ± 0.014
CTTTGGCTTT | 0.967 ± 0.014
TACATGAGTA | 1.03 ± 0.023
GCGGTTTCGT | 0.983 ± 0.012
ATCACTCTTT | 1.02 ± 0.058
CGTTGGGGGC | 0.998 ± 0.087
TCAGGGGCCT | 1.03 ± 0.044
GACTAAATGA | 1.01 ± 0.016
GGAAAATTCT | 1.01 ± 0.013
TACTGTAGGG | 1.12 ± 0.029

Sequence | switch fluorescence ratio
AATCGGTTTG | 0.987 ± 0.029
ATAATGTCGC | 0.9702 ± 0.0012
GTTGTATGAT | 0.9841 ± 0.0096
ATGGCTGGGT | 0.971 ± 0.029
GAGCATGAAA | 0.974 ± 0.04
TCCTCATGGT | 1 ± 0.022
CGGGAGTTGT | 0.99 ± 0.042
CGTATCTAGG | 0.98 ± 0.021
ACGATTGGGT | 0.992 ± 0.013
ACCGTTAGGT | 0.951 ± 0.037
AAAGGAGAGG | 1.01 ± 0.05
ATATGGGTGG | 1.01 ± 0.016
TTAGCCGGGT | 0.9802 ± 0.0028
AGCACCGGGT | 1.02 ± 0.018
GATTCGGCGT | 0.9867 ± 0.0067
TTTATGTAAA | 0.9849 ± 0.0081
TAGGAGGCTC | 1.03 ± 0.014
CGTTGGTTCA | 1 ± 0.023
GGGTACGTGG | 1.005 ± 0.009
TGATTATGTT | 1.04 ± 0.035
TTTATGTTT | 0.984 ± 0.019
TTTATTCTGT | 1 ± 0.022
ACTCTAGTTT | 1.048 ± 0.0027

Sequence | switch fluorescence ratio
CTAGGGGGTC | 0.993 ± 0.046
CGTGTTTGGG | 0.994 ± 0.022
CTGGTAAAGA | 0.984 ± 0.015
CCGAAAGCCG | 1.11 ± 0.024
CGGGTTGCGG | 0.9508 ± 0.009
AAGCGTGTGG | 1 ± 0.036
AGTGAGTTTT | 1.03 ± 0.024
TCCTTCAACT | 1.08 ± 0.045
TGGTGGTGTG | 0.983 ± 0.035
TTAGAGACGT | 1.03 ± 0.027
ATTGGCATCT | 0.9925 ± 0.0079
TCTGAACGGT | 0.983 ± 0.023
ACTTGTTCGT | 1.006 ± 0.0075
GAGAGCCACC | 0.971 ± 0.061
TAATTTTCGT | 1.02 ± 0.03
TTGGTTACTT | 1.01 ± 0.011
TTAGTAGGAG | 0.992 ± 0.034
TGAGGGATGA | 1.028 ± 0.0075
GTATTAGGTG | 1.03 ± 0.048
AAGGGCTCGG | 1.07 ± 0.14
AGTGAGGTGC | 1.02 ± 0.01
TCCCGGTTTG | 1.009 ± 0.01
GTTGAATCAT | 0.992 ± 0.017

Sequence | switch fluorescence ratio
ATTTTTTTCT | 1.04 ± 0.04
CGTGCTGCAA | 4.91 ± 1.7
TTGGCCACGC | 1.018 ± 0.0056
AGGGAGTATG | 1.01 ± 0.023
AATTTGGGAG | 1.01 ± 0.025
CTATTATTCG | 1.01 ± 0.045
ACATCTTTTA | 1.03 ± 0.038
GCTTGGTCGT | 1.03 ± 0.024
TAGAGAATTT | 0.984 ± 0.02
GTGGTAGGGA | 0.98 ± 0.019
TCTTAGGGGT | 0.981 ± 0.021
TTAAGATGTA | 1.01 ± 0.039
GTGGAGTTTG | 0.999 ± 0.012
GCGATCAAGG | 1.02 ± 0.012
CGTAGGGGTC | 0.959 ± 0.042
AAGCTTCTGT | 1.023 ± 0.0057
TAATGCTGTT | 0.997 ± 0.049
ATATCAAAAT | 1.01 ± 0.013
TTAAAGGTTT | 1.01 ± 0.018
GGTATTTACA | 1.034 ± 0.0033
CTGGCTAGAG | 0.973 ± 0.018
CAGAGATTCT | 0.992 ± 0.0077
TTTCTGGCCG | 0.907 ± 0.046

Sequence | switch fluorescence ratio
TTTTAAAGGA | 1 ± 0.023
CCGGCGGTTG | 1 ± 0.012
TTTAGAGGCT | 1 ± 0.012
ACTTAGAATA | 1.032 ± 0.0033
GGTTCCTTA | 0.994 ± 0.045
TTACAATTTG | 1.01 ± 0.039
TGCTGGAGGG | 0.955 ± 0.011
ACTCAATCTG | 1.0397 ± 0.00024
CCCCGTTAGT | 1.01 ± 0.08
ACGAGCGCGT | 1.02 ± 0.027
GAAGAAGGCT | 0.89 ± 0.078
TTTCGGAAAA | 1.24 ± 0.41
ATATATGTTT | 0.9649 ± 0.0016
GTTGTCCATA | 1.015 ± 0.0029
GTGTGCTGTG | 1.01 ± 0.063
GCGGGTTAGT | 1.13 ± 0.13
TGACGCGTCA | 1.01 ± 0.013
TAGCGGTGTC | 1.07 ± 0.021
GATGTAATCT | 1.02 ± 0.025
TTAATGACTT | 1.02 ± 0.058
ACTGATGGGT | 1 ± 0.013
AAGTATGCTT | 1.01 ± 0.021
GACATATTAT | 1.013 ± 0.0057

Sequence | switch fluorescence ratio
ACTGAGTTTA | 1.02 ± 0.019
CACTGTAACC | 1.19 ± 0.072
CGGAAAAATT | 1.04 ± 0.12
CTTTGGGTGG | 1.03 ± 0.058
GGTCGCGGGT | 1 ± 0.038
CTGGGCCCGG | 1.16 ± 0.27
ACGGTAAGTG | 1.02 ± 0.042
TTCCATTTTT | 0.984 ± 0.012
GTGGGAAAG | 0.983 ± 0.016
ATGTGACGCA | 1.13 ± 0.012
GGGGGGTGTC | 1.01 ± 0.038
GCTGACATTC | 0.992 ± 0.04
TTAGGGCCAA | 1 ± 0.0078
GCTGAGGATG | 0.9799 ± 0.0058
TTGGGTCATA | 1.01 ± 0.039
TCGGTTTGGA | 1.019 ± 0.0063
TTTCAGGTTT | 0.983 ± 0.033
TAGAACCGGG | 1.09 ± 0.024
TAATTTTGGG | 0.999 ± 0.047
